Test results taken from patent US20240181125A1 (published 2024).
Primed or numbered codes have the meaning given here. Ends that are not written are not given here. FITC′ = not defined here

T1: TGFβ receptor I (TβR1), R&D, coated on ELISA plate
T1 chain: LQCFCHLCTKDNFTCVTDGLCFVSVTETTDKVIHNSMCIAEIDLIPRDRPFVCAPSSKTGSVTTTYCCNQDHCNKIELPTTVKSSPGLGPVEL


Experiments:
Assay in all cases: ELISA-like binding assay
TβR3 = biological target: TβR3
IgG = biological target: IgG
[1] = biological target: T1, TGFβ receptor I (TβR1), R&D, coated on …

| Kd (TβR3) [µM] | Kd (IgG) [µM] | Kd [1] [µM] | Binder |
| --- | --- | --- | --- |
| 41.1 | 83 |  | ECGLLPVGRPDRVWRLCK-{FITC′} (cysteine pairing not given here) [PTβR2I] |
|  |  | 35.2 | ECGLLPVGRPDRVWRLCK-{FITC′} (cysteine pairing not given here) [peptide-based TGFβ receptor II inhibitor (PTβR2I), ECGLLPVGRPDRVWRLCK-FITC] |
